From patent US20130071390A1 (Merck Sharp & Dohme, published 2013)

How the values were obtained:
[1] = molecular target: T1, histidine-tagged extracellular domain of human Fc gamma receptor IIb/c (Pichia pastoris produced) (human, UniProt P31994 46-217); test: FcγR ELISA, receptor coated on plate
T1 construct: also called FcγRIIb/c; FcγRIIb
T1 sequence: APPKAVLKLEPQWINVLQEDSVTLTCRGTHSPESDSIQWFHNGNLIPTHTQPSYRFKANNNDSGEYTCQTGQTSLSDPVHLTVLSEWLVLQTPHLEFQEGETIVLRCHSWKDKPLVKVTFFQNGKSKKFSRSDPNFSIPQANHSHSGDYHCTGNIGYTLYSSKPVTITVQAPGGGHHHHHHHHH
Method: (§1) High protein binding 96-well plates (Corning Costar, Lowell, Mass.) were coated with 100 μl per well of Fcγ receptor solutions in PBS at the following concentrations: 1 μg/mL for FcγRI (R & D Systems) and FcγRIIa (Pichia pastoris produced), 2 μg/mL for FcγRIIb/c (P. pastoris produced), 0.4 μg/mL for FcγRIIIa-V158, and 0.8 μg/mL for FcγRIIIa-F158 (both P. pastoris produced).
(§2) For FcγRI, the antibody was coated in assay diluent (1% BSA, PBS, 0.05% Tween20) in monomeric form. For all other receptors, the antibody was coated after dimerization with alkaline phosphatase conjugated anti-human IgG F(ab′)₂ (Jackson ImmunoResearch, West Grove, Pa.) for one hour at room temperature. FcγRI bound antibody was also detected using the F(ab′)₂ and all plates were quantified by measuring excitation at 340 nm and emission at 465 nm after an 18 hour incubation with SuperPhosk (Virolabs, Chantilly, Va.).

[2] = molecular target: T2, FcγRI (Fc receptor gamma-chain I, CD64) (UniProt P12314 16-288); test: FcγR ELISA
T2 construct: also called FcγR1
T2 sequence (P12314 16-288 limits assumed): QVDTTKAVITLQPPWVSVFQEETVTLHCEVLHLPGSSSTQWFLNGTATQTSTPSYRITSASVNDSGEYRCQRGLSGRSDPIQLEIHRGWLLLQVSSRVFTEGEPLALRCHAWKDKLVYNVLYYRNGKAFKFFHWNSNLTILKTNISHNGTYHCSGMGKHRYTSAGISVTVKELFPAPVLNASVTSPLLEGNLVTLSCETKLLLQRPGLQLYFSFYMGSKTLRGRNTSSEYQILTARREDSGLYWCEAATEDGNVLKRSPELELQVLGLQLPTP
Method: as §1, §2

B1: anti-PCSK9 double mutein antibody F243A/V264A produced in GFI6.0 (antibody, human IgG1, kappa)
heavy: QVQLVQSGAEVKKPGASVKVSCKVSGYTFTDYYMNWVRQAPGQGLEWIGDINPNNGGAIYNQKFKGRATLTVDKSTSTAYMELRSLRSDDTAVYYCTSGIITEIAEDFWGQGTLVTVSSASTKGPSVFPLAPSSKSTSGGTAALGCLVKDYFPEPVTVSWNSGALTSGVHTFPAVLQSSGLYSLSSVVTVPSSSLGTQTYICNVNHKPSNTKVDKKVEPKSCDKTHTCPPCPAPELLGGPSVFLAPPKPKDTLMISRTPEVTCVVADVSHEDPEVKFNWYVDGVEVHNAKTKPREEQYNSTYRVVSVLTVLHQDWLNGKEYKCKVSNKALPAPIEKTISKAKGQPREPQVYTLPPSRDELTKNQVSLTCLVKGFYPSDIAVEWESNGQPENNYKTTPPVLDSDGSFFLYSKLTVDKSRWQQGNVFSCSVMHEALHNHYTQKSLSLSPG
light: DIQMTQSPSSLSASVGDRVTITCKASQNVGTNVVWYQQKPGKAPKALIHSASYRYSGVPSRFSGSGSGTDFTLTISSLQPEDFATYYCQQYKTYPYTFGQGTKVEIKRTVAAPSVFIFPPSDEQLKSGTASVVCLLNNFYPREAKVQWKVDNALQSGNSQESVTEQDSKDSTYSLSSTLTLSKADYEKHKVYACEVTHQGLSSPVTKSFNRGEC
binding result [1]: no binding | fold reduction in binding vs parent antibody (produced in GFI5.0) [2]: ~4 fold
